The results in this text go back to the supplement of paper PMC9112550, “Optimization of the antimicrobial peptide Bac7 by deep mutational scanning” (BMC Biology, 2022).
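Also: peptides expressed intracellularly from a pBAD plasmid library in pooled LB shake-flask culture, induced with 0.3% L-arabinose, DNA abundance read by NGS, three biological replicates, DESeq2 with apeglm shrinkage.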

For the data set, the system named is Escherichia coli TOP10. Briefly: shrunken log2 fold change of peptide-encoding DNA abundance (4.5 h post-induction vs induction); higher = less antimicrobial activity (less host growth inhibition). Conditions: time post-induction: 4.5 h; library: site-saturation at positions 5, 18, 19, 20.
For the sequence RRIRHRPPRLPRPRPRPTDEPRP, the “shrunken log2 fold change” value was -0.123.

As for RRIRQRPPRLPRPRPRPQDEPRP, the “shrunken log2 fold change” value worked out at 0.104.

Consider RRIRTRPPRLPRPRPRPMPRPRP, for which the “shrunken log2 fold change” value was determined as 0.175.

For RRIRARPPRLPRPRPRPDIFPRP, the “shrunken log2 fold change” value came to 0.148.

RRIRGRPPRLPRPRPRPHSLPRP: the “shrunken log2 fold change” value is -0.0762.

Regarding RRIRDRPPRLPRPRPRPRWEPRP, the “shrunken log2 fold change” value was -0.0171.

For RRIRRRPPRLPRPRPRPTSQPRP, the “shrunken log2 fold change” value is 0.249.

On to RRIRKRPPRLPRPRPRPKVPPRP, for which the “shrunken log2 fold change” value turned out to be 0.225.

In the case of RRIRTRPPRLPRPRPRPFVPPRP, the “shrunken log2 fold change” value turned out to be 2.01.

With RRIRQRPPRLPRPRPRPQMMPRP, the “shrunken log2 fold change” value is -0.082.

Take RRIRKRPPRLPRPRPRPDIFPRP: the “shrunken log2 fold change” value is -0.178.

For RRIRIRPPRLPRPRPRPYGKPRP, the “shrunken log2 fold change” value was -0.108.

On to RRIRCRPPRLPRPRPRPICWPRP, for which the “shrunken log2 fold change” value came to 0.202.

As for RRIRARPPRLPRPRPRPKNDPRP, the “shrunken log2 fold change” value stood at 0.222.

Turning to RRIRARPPRLPRPRPRPMRCPRP, the “shrunken log2 fold change” value was found to be 0.162.

In the case of RRIRTRPPRLPRPRPRPESNPRP, the “shrunken log2 fold change” value is -0.178.

For RRIRSRPPRLPRPRPRPHGSPRP, the “shrunken log2 fold change” value was -0.0567.

Consider RRIRWRPPRLPRPRPRPVKVPRP, for which the “shrunken log2 fold change” value was -0.0471.

Take RRIRMRPPRLPRPRPRPWCSPRP: the “shrunken log2 fold change” value was -0.075.

As to RRIRIRPPRLPRPRPRPAYEPRP, the “shrunken log2 fold change” value was -0.277.

Regarding RRIRFRPPRLPRPRPRPYPEPRP, the “shrunken log2 fold change” value is -0.488.

Turning to RRIRSRPPRLPRPRPRPTMGPRP, the “shrunken log2 fold change” value is -0.238.

RRIRCRPPRLPRPRPRPMFMPRP: the “shrunken log2 fold change” value was -0.246.

As to RRIRFRPPRLPRPRPRPEHDPRP, the “shrunken log2 fold change” value was -0.446.

On to RRIRKRPPRLPRPRPRPQKTPRP, for which the “shrunken log2 fold change” value is 0.167.

On to RRIRKRPPRLPRPRPRPSLLPRP, for which the “shrunken log2 fold change” value is -0.0176.

With RRIRIRPPRLPRPRPRPKYPPRP, the “shrunken log2 fold change” value is -0.121.

Consider RRIRSRPPRLPRPRPRPNFTPRP, for which the “shrunken log2 fold change” value was -0.0286.

With RRIRLRPPRLPRPRPRPPNMPRP, the “shrunken log2 fold change” value was -0.076.

For RRIRVRPPRLPRPRPRPNTKPRP, the “shrunken log2 fold change” value came out at 0.181.

Regarding RRIRYRPPRLPRPRPRPIAVPRP, the “shrunken log2 fold change” value is -0.321.

For the sequence RRIRQRPPRLPRPRPRPIHAPRP, the “shrunken log2 fold change” value is -0.0062.

Consider RRIRDRPPRLPRPRPRPQIGPRP, for which the “shrunken log2 fold change” value was -0.00672.

For RRIRRRPPRLPRPRPRPWFHPRP, the “shrunken log2 fold change” value is 0.0067.

In the case of RRIRFRPPRLPRPRPRPWMWPRP, the “shrunken log2 fold change” value was -0.0253.

On to RRIRCRPPRLPRPRPRPIQYPRP, for which the “shrunken log2 fold change” value is -0.308.

In the case of RRIRDRPPRLPRPRPRPAWIPRP, the “shrunken log2 fold change” value was determined as 0.0906.

Consider RRIRQRPPRLPRPRPRPDETPRP, for which the “shrunken log2 fold change” value is -0.00179.

In the case of RRIRWRPPRLPRPRPRPPPWPRP, the “shrunken log2 fold change” value came to 0.616.

With RRIRNRPPRLPRPRPRPYRAPRP, the “shrunken log2 fold change” value is -0.183.

Regarding RRIRTRPPRLPRPRPRPKKVPRP, the “shrunken log2 fold change” value is -0.282.

As for RRIRWRPPRLPRPRPRPITCPRP, the “shrunken log2 fold change” value was -0.0627.

Take RRIRQRPPRLPRPRPRPMIWPRP: the “shrunken log2 fold change” value is -0.79.

As for RRIRERPPRLPRPRPRPAQLPRP, the “shrunken log2 fold change” value was -0.124.

RRIRMRPPRLPRPRPRPNKAPRP: the “shrunken log2 fold change” value was -0.05.

For RRIRPRPPRLPRPRPRPQMAPRP, the “shrunken log2 fold change” value was found to be 0.129.

Take RRIRQRPPRLPRPRPRPRREPRP: the “shrunken log2 fold change” value stood at 0.08.

Consider RRIRKRPPRLPRPRPRPRFDPRP, for which the “shrunken log2 fold change” value is 0.19.

On to RRIRRRPPRLPRPRPRPILQPRP, for which the “shrunken log2 fold change” value came out at 1.83.

Take RRIRMRPPRLPRPRPRPTVQPRP: the “shrunken log2 fold change” value is -0.0862.

As to RRIRWRPPRLPRPRPRPPQGPRP, the “shrunken log2 fold change” value is 0.226.

On to RRIRKRPPRLPRPRPRPTRQPRP, for which the “shrunken log2 fold change” value worked out at 0.724.

Turning to RRIRFRPPRLPRPRPRPRVAPRP, the “shrunken log2 fold change” value is 0.439.

As to RRIRCRPPRLPRPRPRPCSFPRP, the “shrunken log2 fold change” value was -0.57.

RRIRARPPRLPRPRPRPSDAPRP: the “shrunken log2 fold change” value was found to be 0.396.

For RRIRHRPPRLPRPRPRPAGNPRP, the “shrunken log2 fold change” value came to 0.023.

In the case of RRIRMRPPRLPRPRPRPVHNPRP, the “shrunken log2 fold change” value was -0.0275.

Regarding RRIRERPPRLPRPRPRPFEQPRP, the “shrunken log2 fold change” value was -0.126.

Take RRIRNRPPRLPRPRPRPALFPRP: the “shrunken log2 fold change” value was determined as 0.177.

On to RRIRCRPPRLPRPRPRPPMHPRP, for which the “shrunken log2 fold change” value stood at 0.183.

For RRIRTRPPRLPRPRPRPQRPPRP, the “shrunken log2 fold change” value was found to be 0.158.

In the case of RRIRPRPPRLPRPRPRPFIHPRP, the “shrunken log2 fold change” value was -0.224.

As to RRIRYRPPRLPRPRPRPPHKPRP, the “shrunken log2 fold change” value was -0.549.

As for RRIRIRPPRLPRPRPRPCECPRP, the “shrunken log2 fold change” value was 0.0112.

In the case of RRIRIRPPRLPRPRPRPKHLPRP, the “shrunken log2 fold change” value was -0.137.

As to RRIRNRPPRLPRPRPRPWLLPRP, the “shrunken log2 fold change” value was -0.436.

On to RRIRVRPPRLPRPRPRPWPKPRP, for which the “shrunken log2 fold change” value amounted to 0.0246.

With RRIRCRPPRLPRPRPRPQTCPRP, the “shrunken log2 fold change” value amounted to 0.034.

For RRIRSRPPRLPRPRPRPSPTPRP, the “shrunken log2 fold change” value was -0.0425.

Take RRIRHRPPRLPRPRPRPYPLPRP: the “shrunken log2 fold change” value was -0.641.

Consider RRIRTRPPRLPRPRPRPWYAPRP, for which the “shrunken log2 fold change” value is -0.521.

As to RRIRVRPPRLPRPRPRPMESPRP, the “shrunken log2 fold change” value amounted to 0.156.

In the case of RRIRHRPPRLPRPRPRPRPLPRP, the “shrunken log2 fold change” value came to 0.255.

With RRIRGRPPRLPRPRPRPMDRPRP, the “shrunken log2 fold change” value stood at 0.156.

Turning to RRIRSRPPRLPRPRPRPPWCPRP, the “shrunken log2 fold change” value was 0.309.

In the case of RRIRPRPPRLPRPRPRPKNIPRP, the “shrunken log2 fold change” value is -0.719.

Take RRIRWRPPRLPRPRPRPMHYPRP: the “shrunken log2 fold change” value is -0.107.

With RRIRNRPPRLPRPRPRPGDEPRP, the “shrunken log2 fold change” value came out at 0.0115.

Regarding RRIRGRPPRLPRPRPRPPARPRP, the “shrunken log2 fold change” value was 1.2.

Regarding RRIRNRPPRLPRPRPRPKIKPRP, the “shrunken log2 fold change” value was -0.256.

Take RRIRCRPPRLPRPRPRPGIQPRP: the “shrunken log2 fold change” value is -0.248.

As to RRIRWRPPRLPRPRPRPTGRPRP, the “shrunken log2 fold change” value stood at 0.536.

Consider RRIRYRPPRLPRPRPRPWTHPRP, for which the “shrunken log2 fold change” value was -0.00149.

Regarding RRIRPRPPRLPRPRPRPEATPRP, the “shrunken log2 fold change” value worked out at 0.33.

As for RRIRHRPPRLPRPRPRPMFPPRP, the “shrunken log2 fold change” value is -0.281.

On to RRIRFRPPRLPRPRPRPCQYPRP, for which the “shrunken log2 fold change” value is -0.53.

Regarding RRIRVRPPRLPRPRPRPCSHPRP, the “shrunken log2 fold change” value was -0.246.

As to RRIRTRPPRLPRPRPRPFSQPRP, the “shrunken log2 fold change” value is -0.0652.

Take RRIRGRPPRLPRPRPRPTYVPRP: the “shrunken log2 fold change” value was -0.144.

Regarding RRIRPRPPRLPRPRPRPRIRPRP, the “shrunken log2 fold change” value stood at 0.0752.

On to RRIRSRPPRLPRPRPRPQRKPRP, for which the “shrunken log2 fold change” value turned out to be 0.264.

Take RRIRDRPPRLPRPRPRPDGYPRP: the “shrunken log2 fold change” value is -0.0204.

Consider RRIRERPPRLPRPRPRPWTVPRP, for which the “shrunken log2 fold change” value came out at 0.0377.

In the case of RRIRVRPPRLPRPRPRPIGNPRP, the “shrunken log2 fold change” value is -0.194.

For the sequence RRIRARPPRLPRPRPRPVVPPRP, the “shrunken log2 fold change” value worked out at 0.496.

Regarding RRIRNRPPRLPRPRPRPQNKPRP, the “shrunken log2 fold change” value is -0.666.

As to RRIRKRPPRLPRPRPRPMNEPRP, the “shrunken log2 fold change” value stood at 0.22.

As for RRIRFRPPRLPRPRPRPNFGPRP, the “shrunken log2 fold change” value worked out at 0.0849.

On to RRIRERPPRLPRPRPRPFETPRP, for which the “shrunken log2 fold change” value came to 0.21.

RRIRVRPPRLPRPRPRPGNAPRP: the “shrunken log2 fold change” value was 0.133.

Take RRIRKRPPRLPRPRPRPISYPRP: the “shrunken log2 fold change” value was -0.0078.

On to RRIRKRPPRLPRPRPRPSVEPRP, for which the “shrunken log2 fold change” value is 0.0133.

Regarding RRIRERPPRLPRPRPRPKWYPRP, the “shrunken log2 fold change” value was -0.175.

As for RRIRCRPPRLPRPRPRPYNEPRP, the “shrunken log2 fold change” value is -0.51.

With RRIRHRPPRLPRPRPRPFNKPRP, the “shrunken log2 fold change” value was -0.01.

On to RRIRTRPPRLPRPRPRPQPTPRP, for which the “shrunken log2 fold change” value is 0.197.

Consider RRIRVRPPRLPRPRPRPMRKPRP, for which the “shrunken log2 fold change” value came out at 4.33.

On to RRIRERPPRLPRPRPRPINFPRP, for which the “shrunken log2 fold change” value was -0.291.

Take RRIRCRPPRLPRPRPRPECNPRP: the “shrunken log2 fold change” value was -0.0881.

Consider RRIRSRPPRLPRPRPRPTWMPRP, for which the “shrunken log2 fold change” value is 0.0331.

With RRIRARPPRLPRPRPRPWPKPRP, the “shrunken log2 fold change” value is 0.508.

Take RRIRMRPPRLPRPRPRPMATPRP: the “shrunken log2 fold change” value was 0.0129.

Regarding RRIRGRPPRLPRPRPRPYKMPRP, the “shrunken log2 fold change” value was -0.234.

With RRIRTRPPRLPRPRPRPRNHPRP, the “shrunken log2 fold change” value was -0.345.

In the case of RRIRHRPPRLPRPRPRPSAWPRP, the “shrunken log2 fold change” value was 0.373.

On to RRIRPRPPRLPRPRPRPISQPRP, for which the “shrunken log2 fold change” value was -0.0721.

RRIRERPPRLPRPRPRPGKQPRP: the “shrunken log2 fold change” value is -0.0388.

Consider RRIRARPPRLPRPRPRPPYKPRP, for which the “shrunken log2 fold change” value is 0.0849.

Consider RRIRDRPPRLPRPRPRPKFHPRP, for which the “shrunken log2 fold change” value was -0.362.

As for RRIRRRPPRLPRPRPRPEDQPRP, the “shrunken log2 fold change” value worked out at 0.196.

Take RRIRWRPPRLPRPRPRPHNGPRP: the “shrunken log2 fold change” value was -0.349.

Take RRIRFRPPRLPRPRPRPIIVPRP: the “shrunken log2 fold change” value is -0.394.

Regarding RRIRLRPPRLPRPRPRPLAEPRP, the “shrunken log2 fold change” value turned out to be 0.289.

Regarding RRIRQRPPRLPRPRPRPKIPPRP, the “shrunken log2 fold change” value was -0.0111.

In the case of RRIRDRPPRLPRPRPRPCCHPRP, the “shrunken log2 fold change” value was 0.0218.
